Experimental data reported in publication PMC8280269, “A novel mycothiol-dependent thiol–disulfide reductase in Corynebacterium glutamicum involving oxidative stress resistance” (3 Biotech, 2021).

T1: NCgl2478 (Corynebacterium glutamicum, UniProt Q8NMK6, C24S)
T1 construct: gene Cgl2567; full-length, N-terminal His6 from pET28a, E. coli BL21(DE3); tag cut with enterokinase for activity assays
T1 sequence (Q8NMK6 1-245 C24S): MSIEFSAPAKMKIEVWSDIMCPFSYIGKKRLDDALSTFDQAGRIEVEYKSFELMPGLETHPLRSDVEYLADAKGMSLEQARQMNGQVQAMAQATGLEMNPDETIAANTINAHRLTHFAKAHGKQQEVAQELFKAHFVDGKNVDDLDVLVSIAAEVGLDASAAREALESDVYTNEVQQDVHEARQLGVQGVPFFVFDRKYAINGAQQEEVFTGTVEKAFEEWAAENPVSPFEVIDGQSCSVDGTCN

B1: NCgl2478 (Corynebacterium glutamicum ATCC 13032) (protein)
chain: MSIEFSAPAKMKIEVWSDIMCPFCYIGKKRLDDALSTFDQAGRIEVEYKSFELMPGLETHPLRSDVEYLADAKGMSLEQARQMNGQVQAMAQATGLEMNPDETIAANTINAHRLTHFAKAHGKQQEVAQELFKAHFVDGKNVDDLDVLVSIAAEVGLDASAAREALESDVYTNEVQQDVHEARQLGVQGVPFFVFDRKYAINGAQQEEVFTGTVEKAFEEWAAENPVSPFEVIDGQSCSVDGTCN
notes: full-length, N-terminal His6 from pET28a, E. coli BL21(DE3); tag cut with enterokinase for activity assays
B2: NCgl2478 (Corynebacterium glutamicum ATCC 13032; C24S) (protein)
chain: MSIEFSAPAKMKIEVWSDIMCPFSYIGKKRLDDALSTFDQAGRIEVEYKSFELMPGLETHPLRSDVEYLADAKGMSLEQARQMNGQVQAMAQATGLEMNPDETIAANTINAHRLTHFAKAHGKQQEVAQELFKAHFVDGKNVDDLDVLVSIAAEVGLDASAAREALESDVYTNEVQQDVHEARQLGVQGVPFFVFDRKYAINGAQQEEVFTGTVEKAFEEWAAENPVSPFEVIDGQSCSVDGTCN
notes: as for B1
B3: Mrx1 (Corynebacterium glutamicum ATCC 13032) (protein)
chain: MSNVTIYATDWCPYCRSLLKGLDGQEYDLIDVDQDEEAGEWVKSVNDGNRIVPTVRYSDGTHATNPLAAEVIAKIEALA
notes: pET28a-mrx1, N-terminal His6, E. coli BL21(DE3); tag cut for activity assays

Key:
NCgl2478 = biological target: T1, NCgl2478; assay: NBD-Cl labelling and DTNB thiol count after H2O2 with MSH; type: binding; details: covalent; mixed disulfide at Cys21 formed from the H2O2-oxidised sulfenic acid
Cys21 = assay: UV-vis; details: 10 °C; poly-buffer: 10 mM sodium acetate, 10 mM sodium phosphate, 10 mM sodium borate, 10 mM sodium citrate, starting pH 9.4, titrated with 100 mM HCl; 20 μM protein; reduced protein, referenced to the oxidized protein (Cys mutants oxidized with tenfold excess H2O2); no ligand
Cys24 = assay: UV-vis; details: 10 °C; poly-buffer: 10 mM sodium acetate, 10 mM sodium phosphate, 10 mM sodium borate, 10 mM sodium citrate, starting pH 9.4, titrated with 100 mM HCl; 20 μM protein; reduced protein, referenced to the oxidized protein (Cys mutants oxidized with tenfold excess H2O2); no ligand
purified protein = substrate: CC(=O)N[C@@H](CSSCCO)C(=O)N[C@H]1[C@@H](O[C@@H]2[C@H](O)[C@H](O)[C@@H](O)[C@H](O)[C@H]2O)O[C@H](CO)[C@@H](O)[C@@H]1O; assay: purified protein; type: biochemical, Corynebacterium glutamicum; details: 500 μM MSH, 5 μM Mtr, 250 μM NADPH, 50 mM potassium phosphate pH 7.6, 25 °C, substrate formed in situ from HED and MSH

Molecule	NBD-Cl labelling and DTNB thiol count after H2O2 with MSH (NCgl2478)	pKa (Cys21)	pKa (Cys24)	Km (purified protein)	kcat (purified protein)
CC(=O)N[C@@H](CS)C(=O)NC1[C@@H](O[C@@H]2[C@H](O)[C@H](O)[C@@H](O)[C@H](O)[C@H]2O)O[C@H](CO)[C@@H](O)[C@@H]1O (stereo partly drawn) [MSH, 1D-myo-inosityl-2-[N-acetyl-L-cysteinyl] amido-2-deoxy-α-D-glucopyranoside]	MSH reacted with NCgl2478:C24S–SOH to form NCgl2478:C24S–SSM	–	–	–	–
NCgl2478 (DsbA-like mycoredoxin / mycothiol-dependent thiol-disulfide reductase, annotated dithiol-disulfide isomerase DsbA) (Corynebacterium glutamicum (RES167, derived from ATCC 13032))	–	less than 6	8.09	–	–
B1	–	–	–	510 ± 50 µM	8.55 ± 0.19 s⁻¹
B2	–	–	–	460 ± 50 µM	11.37 ± 0.31 s⁻¹
B3	–	–	–	540 ± 110 µM	103.81 ± 3.14 s⁻¹
